We go through one molecule from PMC12596195, “Mei5–Sae3 stabilizes both active and inactive forms of Dmc1 filaments independently of its impact on ATP hydrolysis” (Nucleic Acids Research, 2025).

“And” between values parts separate entries of the source, which are not always exact repeats. Equal values may be shown once.

Data set [1] has as its target T1, Dmc1-WT;Mei5-Sae3 (Saccharomyces cerevisiae;Saccharomyces …, UniProt P25453;P32489;P89114 1-334;1-222;1-91, |).
T1 sequence 1: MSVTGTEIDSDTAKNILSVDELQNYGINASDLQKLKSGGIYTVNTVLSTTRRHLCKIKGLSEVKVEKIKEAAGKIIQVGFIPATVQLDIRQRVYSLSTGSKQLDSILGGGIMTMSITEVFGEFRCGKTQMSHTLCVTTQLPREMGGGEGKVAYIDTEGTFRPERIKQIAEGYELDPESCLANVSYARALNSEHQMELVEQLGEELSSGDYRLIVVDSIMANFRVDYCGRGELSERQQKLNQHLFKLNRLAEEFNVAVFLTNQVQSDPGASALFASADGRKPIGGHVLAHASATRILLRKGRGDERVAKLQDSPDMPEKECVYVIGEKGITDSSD
T1 sequence 2: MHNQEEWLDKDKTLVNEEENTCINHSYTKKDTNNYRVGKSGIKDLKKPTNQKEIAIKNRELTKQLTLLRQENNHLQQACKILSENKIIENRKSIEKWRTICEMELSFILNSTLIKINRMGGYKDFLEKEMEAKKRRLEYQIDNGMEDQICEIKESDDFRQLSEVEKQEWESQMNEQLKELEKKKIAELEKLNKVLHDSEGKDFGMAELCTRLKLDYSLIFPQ
T1 sequence 3: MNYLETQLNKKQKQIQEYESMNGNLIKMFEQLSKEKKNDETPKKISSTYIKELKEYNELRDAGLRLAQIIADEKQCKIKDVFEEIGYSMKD
The experiment in a line: fluorescence polarization; AMP-PNP, 400 nM Mei5-Sae3; FP: 25 mM HEPES pH 7.5, 1 mM Mg2+, 1 mM ATP, 1 mM DTT, 50 mM NaCl (100 mM in Fig. 3), 100 ug/ml BSA, 0.02% NP-40, 70 uM Ca2+ or as indicated, 3 nM 84-nt ssDNA. The conditions noted are these: protein: recombinant;recombinant; tags: N-terminal 6xHis;N-terminal 6xHis on Mei5; label: 5' Alexa Fluor 488. (Fluorescence polarisation rises when a labelled molecule tumbles more slowly, as on binding a larger partner.)

Data set [2] has as its target T2, Dmc1-WT (Saccharomyces cerevisiae, UniProt P25453 1-334).
T2 sequence: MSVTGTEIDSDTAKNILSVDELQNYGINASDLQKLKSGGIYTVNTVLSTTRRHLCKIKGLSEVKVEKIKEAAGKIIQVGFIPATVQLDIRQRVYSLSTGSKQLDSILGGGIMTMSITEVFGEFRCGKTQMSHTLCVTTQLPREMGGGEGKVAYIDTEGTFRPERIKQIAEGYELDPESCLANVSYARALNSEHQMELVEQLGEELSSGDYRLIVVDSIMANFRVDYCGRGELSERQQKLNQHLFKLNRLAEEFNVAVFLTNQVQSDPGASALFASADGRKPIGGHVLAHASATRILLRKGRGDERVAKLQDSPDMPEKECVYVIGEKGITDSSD
The experiment in a line: fluorescence polarization; ATP, 250 uM Ca2+; FP: 25 mM HEPES pH 7.5, 1 mM Mg2+, 1 mM ATP, 1 mM DTT, 50 mM NaCl (100 mM in Fig. 3), 100 ug/ml BSA, 0.02% NP-40, 70 uM Ca2+ or as indicated, 3 nM 84-nt ssDNA. The following applies: protein: recombinant; tags: N-terminal 6xHis; label: 5' Alexa Fluor 488.

For data set [3], the target named is T2, Dmc1-WT. The experiment in a line: fluorescence polarization; ATP, 1 mM Ca2+; FP: 25 mM HEPES pH 7.5, 1 mM Mg2+, 1 mM ATP, 1 mM DTT, 50 mM NaCl (100 mM in Fig. 3), 100 ug/ml BSA, 0.02% NP-40, 70 uM Ca2+ or as indicated, 3 nM 84-nt ssDNA. The following applies: protein: recombinant; tags: N-terminal 6xHis; label: 5' Alexa Fluor 488.
The target in data set [4] is T2, Dmc1-WT. The experiment in a line: fluorescence polarization; ATP, 70 uM Ca2+; FP: 25 mM HEPES pH 7.5, 1 mM Mg2+, 1 mM ATP, 1 mM DTT, 50 mM NaCl (100 mM in Fig. 3), 100 ug/ml BSA, 0.02% NP-40, 70 uM Ca2+ or as indicated, 3 nM 84-nt ssDNA. The following applies: protein: recombinant; tags: N-terminal 6xHis; label: 5' Alexa Fluor 488.
The target in data set [5] is T3, Dmc1-E157D (Saccharomyces cerevisiae, UniProt P25453 1-334, E157D).
T3 sequence: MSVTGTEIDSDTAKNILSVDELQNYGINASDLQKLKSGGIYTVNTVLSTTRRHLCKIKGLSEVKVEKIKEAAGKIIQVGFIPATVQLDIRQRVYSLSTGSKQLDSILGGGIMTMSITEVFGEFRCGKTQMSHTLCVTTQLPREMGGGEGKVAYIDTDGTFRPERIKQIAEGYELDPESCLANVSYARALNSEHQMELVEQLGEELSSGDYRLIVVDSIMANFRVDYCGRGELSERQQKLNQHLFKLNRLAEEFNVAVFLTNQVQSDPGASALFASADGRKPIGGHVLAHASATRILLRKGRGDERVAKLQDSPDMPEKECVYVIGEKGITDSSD
The experiment in a line: fluorescence polarization; ATP, 70 uM Ca2+, 50 mM NaCl, 30 C; comparable to WT; FP: 25 mM HEPES pH 7.5, 1 mM Mg2+, 1 mM ATP, 1 mM DTT, 50 mM NaCl (100 mM in Fig. 3), 100 ug/ml BSA, 0.02% NP-40, 70 uM Ca2+ or as indicated, 3 nM 84-nt ssDNA. The following applies: protein: recombinant; tags: N-terminal 6xHis; label: 5' Alexa Fluor 488.

In data set [6] the target is T2, Dmc1-WT. The experiment in a line: fluorescence polarization; ATP, 0 Ca2+; FP: 25 mM HEPES pH 7.5, 1 mM Mg2+, 1 mM ATP, 1 mM DTT, 50 mM NaCl (100 mM in Fig. 3), 100 ug/ml BSA, 0.02% NP-40, 70 uM Ca2+ or as indicated, 3 nM 84-nt ssDNA. The following applies: protein: recombinant; tags: N-terminal 6xHis; label: 5' Alexa Fluor 488.
The target in data set [7] is T4, Mei5-Sae3 (Saccharomyces cerevisiae, UniProt P32489;P89114 1-222;1-91).
T4 sequence 1: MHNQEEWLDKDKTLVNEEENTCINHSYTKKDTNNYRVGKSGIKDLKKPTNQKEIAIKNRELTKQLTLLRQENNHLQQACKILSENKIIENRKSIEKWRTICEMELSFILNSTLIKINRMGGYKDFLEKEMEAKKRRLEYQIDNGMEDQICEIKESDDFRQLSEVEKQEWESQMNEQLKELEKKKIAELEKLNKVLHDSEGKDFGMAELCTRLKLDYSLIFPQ
T4 sequence 2: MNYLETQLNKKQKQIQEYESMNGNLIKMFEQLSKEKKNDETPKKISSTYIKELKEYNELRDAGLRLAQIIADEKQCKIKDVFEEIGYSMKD
The experiment in a line: fluorescence polarization; titration; very low signal at 400 nM; FP: 25 mM HEPES pH 7.5, 1 mM Mg2+, 1 mM ATP, 1 mM DTT, 50 mM NaCl (100 mM in Fig. 3), 100 ug/ml BSA, 0.02% NP-40, 70 uM Ca2+ or as indicated, 3 nM 84-nt ssDNA. The following applies: protein: recombinant; tags: N-terminal 6xHis on Mei5; copies: 1;1; label: 5' Alexa Fluor 488.

Data set [8] addresses T1, Dmc1-WT;Mei5-Sae3. The experiment in a line: fluorescence polarization; ATP, 70 uM Ca2+, Mei5-Sae3 (400 nM, no own signal); FP: 25 mM HEPES pH 7.5, 1 mM Mg2+, 1 mM ATP, 1 mM DTT, 50 mM NaCl (100 mM in Fig. 3), 100 ug/ml BSA, 0.02% NP-40, 70 uM Ca2+ or as indicated, 3 nM 84-nt ssDNA. The conditions noted are these: protein: recombinant;recombinant; tags: N-terminal 6xHis;N-terminal 6xHis on Mei5; label: 5' Alexa Fluor 488.

In data set [9] the target is RecA;Mei5-Sae3 (Escherichia coli;Saccharomyces …, UniProt P0A7G6;P32489;P89114 1-353;1-222;1-91, |). The experiment in a line: fluorescence polarization; 400 nM Mei5-Sae3: no impact on Kd; FP: 25 mM HEPES pH 7.5, 1 mM Mg2+, 1 mM ATP, 1 mM DTT, 50 mM NaCl (100 mM in Fig. 3), 100 ug/ml BSA, 0.02% NP-40, 70 uM Ca2+ or as indicated, 3 nM 84-nt ssDNA. The conditions noted are these: protein: ;recombinant; tags: ;N-terminal 6xHis on Mei5; label: 5' Alexa Fluor 488.

The target of data set [10] is RecA (Escherichia coli, UniProt P0A7G6 1-353). The experiment in a line: fluorescence polarization; 100 mM NaCl (90% of binding remains); FP: 25 mM HEPES pH 7.5, 1 mM Mg2+, 1 mM ATP, 1 mM DTT, 50 mM NaCl (100 mM in Fig. 3), 100 ug/ml BSA, 0.02% NP-40, 70 uM Ca2+ or as indicated, 3 nM 84-nt ssDNA. The conditions noted are these: label: 5' Alexa Fluor 488.
In data set [11] the target is T5, hRad51 (Homo sapiens, UniProt Q06609 1-339). The experiment in a line: fluorescence polarization; ATP; FP: 25 mM HEPES pH 7.5, 1 mM Mg2+, 1 mM ATP, 1 mM DTT, 50 mM NaCl (100 mM in Fig. 3), 100 ug/ml BSA, 0.02% NP-40, 70 uM Ca2+ or as indicated, 3 nM 84-nt ssDNA. The following applies: chain copies: 28; label: 5' Alexa Fluor 488.
For data set [12], the target named is T1, Dmc1-WT;Mei5-Sae3. The experiment in a line: fluorescence polarization; ADP, 400 nM Mei5-Sae3; FP: 25 mM HEPES pH 7.5, 1 mM Mg2+, 1 mM ATP, 1 mM DTT, 50 mM NaCl (100 mM in Fig. 3), 100 ug/ml BSA, 0.02% NP-40, 70 uM Ca2+ or as indicated, 3 nM 84-nt ssDNA. The conditions noted are these: protein: recombinant;recombinant; tags: N-terminal 6xHis;N-terminal 6xHis on Mei5; label: 5' Alexa Fluor 488.

Data set [13] addresses T5, hRad51. The experiment in a line: fluorescence polarization; ADP; FP: 25 mM HEPES pH 7.5, 1 mM Mg2+, 1 mM ATP, 1 mM DTT, 50 mM NaCl (100 mM in Fig. 3), 100 ug/ml BSA, 0.02% NP-40, 70 uM Ca2+ or as indicated, 3 nM 84-nt ssDNA. The conditions noted are these: chain copies: 28; label: 5' Alexa Fluor 488.

Broadly, the Kd is the equilibrium constant for the complex coming apart.

T5 sequence (Q06609 whole entry): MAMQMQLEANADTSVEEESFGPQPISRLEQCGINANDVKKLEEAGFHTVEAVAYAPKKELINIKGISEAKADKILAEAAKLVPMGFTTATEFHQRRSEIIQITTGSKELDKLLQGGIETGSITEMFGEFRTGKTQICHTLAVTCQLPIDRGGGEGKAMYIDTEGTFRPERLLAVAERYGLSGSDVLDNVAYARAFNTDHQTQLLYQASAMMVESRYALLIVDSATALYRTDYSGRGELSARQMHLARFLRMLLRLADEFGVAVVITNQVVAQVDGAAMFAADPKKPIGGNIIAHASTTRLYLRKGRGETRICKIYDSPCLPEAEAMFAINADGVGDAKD
RecA;Mei5-Sae3, sequence (P0A7G6 whole entry, one chain of several): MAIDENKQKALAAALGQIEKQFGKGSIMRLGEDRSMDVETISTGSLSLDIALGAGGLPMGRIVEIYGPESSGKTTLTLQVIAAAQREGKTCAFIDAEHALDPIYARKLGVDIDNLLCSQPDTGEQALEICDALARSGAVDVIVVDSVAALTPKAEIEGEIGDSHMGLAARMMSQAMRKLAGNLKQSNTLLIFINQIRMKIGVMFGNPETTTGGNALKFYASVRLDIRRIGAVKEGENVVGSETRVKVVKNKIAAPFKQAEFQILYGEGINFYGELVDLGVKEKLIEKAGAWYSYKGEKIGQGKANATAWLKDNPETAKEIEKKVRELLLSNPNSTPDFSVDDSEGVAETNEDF
RecA, sequence (P0A7G6 whole entry): as the sequence (P0A7G6 whole entry, one chain of several) above

B1: 84 nt-ssDNA (ssDNA)
DNA: GGTAGCGGTTGGGTGAGTGGTGGGGAGGGTCGGGAGGTGGCGTAGAAACATGATAGGAATGTGAATGAATGAAGTACAAGTAAA
With B1, in data set [1], the “fold decrease in Kd” value is ~1.5 fold lower Kd than Dmc1 alone. Besides, the Kd is 472 nM and 508 nM in data set [2]; 164 ± 13 nM in data set [3]; 966 nM and 933 nM in data set [4]; 1340 ± 113 nM in data set [6]; 512 ± 25 nM in data set [8]; 342 ± 10 nM in [11]. This molecule gave a Kd in data set [13] of 476 ± 20 nM. Moreover, the binding result in data set [5], in [7], in data set [9] and in data set [10] was “binds” each time. For the same molecule, in data set [12], the “fold decrease in Kd vs Dmc1 alone” value is ~1.5 fold lower Kd than Dmc1 alone.
